The values that follow come from US20240067748A1 (NONA BIOSCIENCES SUZHOU, published 2024).

Assay [1] concerns the target T1, mouse Trop2-his protein (Sino Biological, #50922-M08H) (mouse, UniProt Q8BGV3 25-270).
T1 construct: bought protein; also called mouse Trop2 protein; not shown: his tag
T1 sequence (looked up): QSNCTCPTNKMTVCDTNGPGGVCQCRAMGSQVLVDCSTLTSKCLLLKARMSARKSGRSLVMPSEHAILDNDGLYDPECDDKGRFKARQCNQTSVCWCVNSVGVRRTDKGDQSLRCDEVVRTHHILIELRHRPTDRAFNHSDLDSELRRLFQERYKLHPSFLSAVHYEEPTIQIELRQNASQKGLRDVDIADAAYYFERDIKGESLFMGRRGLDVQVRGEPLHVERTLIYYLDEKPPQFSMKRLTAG
Put plainly: ELISA, plate coated with mouse Trop2-his protein. Here is the method:
An ELISA plate was coated with 100 μL of 1 μg/mL mouse Trop2-his protein (Sino Biological, #50922-M08H) in PBS at 4° C. overnight. The plate was blocked with 200 μL of PBST (PBS+0.05% tween 20)+2% BSA at 37° C. for 1 h. The plate was washed 4 times with PBST. 100 μL of Trop2 antibody diluted in a gradient (5-fold dilution, starting concentration: 33.33 nM) was added to the ELISA plate and the plate was incubated at 37° C. for 1 h. The plate was washed 4 times with PBST. 100 μL of anti-human IgG (H+L)-HRP (Sigma, #A8667) diluted in 1:4000 was added and the plate was incubated at 37° C. for 1 h. The plate was washed 4 times with PBST. 100 μL of TMB substrate (Invitrogen, #88-7025-88) was added and the plate was incubated at room temperature for 5 min, and then 50 μL of stop buffer (BBI life sciences, #E661006-0200) was added to stop the reaction. The OD450 nm reading was recorded using a microplate reader (Perkin Elmer, EnSpire).

Assay [2] concerns the target T2, monkey Trop2 on CHO-K1 cells (monkey, UniProt A0A2K5UE71 27-323).
T2 construct: also called CHO-K1/monkey Trop2
T2 sequence: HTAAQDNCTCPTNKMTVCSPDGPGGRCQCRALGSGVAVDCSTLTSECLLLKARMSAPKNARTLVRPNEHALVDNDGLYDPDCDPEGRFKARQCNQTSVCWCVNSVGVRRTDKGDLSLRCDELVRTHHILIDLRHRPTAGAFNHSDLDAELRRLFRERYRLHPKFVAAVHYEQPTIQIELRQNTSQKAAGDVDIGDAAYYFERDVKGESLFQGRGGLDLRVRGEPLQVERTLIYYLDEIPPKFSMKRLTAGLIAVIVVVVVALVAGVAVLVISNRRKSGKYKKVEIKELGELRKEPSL
Nature of the assay: flow cytometry on CHO-K1/monkey Trop2 cells (second run). The protocol: CHO-K1/monkey Trop2 cells (Chempartner, Shanghai, China) and CHO-K1 blast cells were each digested with 3 mL of TrypLE, and the digestion was stopped with 7 mL of the corresponding medium. […] The cell solution was centrifuged, and the cells were washed once with PBS+0.5% BSA. […] The cells were washed once with PBS+0.5% BSA. The cells were incubated at 4° C. for 1 h in the dark with 100 μL of Alexa Fluor 488 goat anti-human IgG (Life technologies, #A-11013) diluted at 1:1000, and washed twice with PBS+0.5% BSA. The cells were resuspended in 200 μL of PBS+0.5% BSA. The suspension was centrifuged at 4° C. for 5 min at 2000 rpm and tested using a FACS verse flow cytometer or NovoCyte flow cytometer (ACEA Biosciences). All procedures were performed on ice.
In general terms: In flow cytometry, cells or beads pass a laser one at a time.

B1: comparative example 2 antibody Tab (hRS7) (antibody, human IgG1, kappa, V domains shown)
VH: QVQLQQSGSELKKPGASVKVSCKASGYTFTNYGMNWVKQAPGQGLKWMGWINTYTGEPTYTDDFKGRFAFSLDTSVSTAYLQISSLKADDTAVYFCARGGFGSSYWYFDVWGQGSLVTVSS
VL: DIQLTQSPSSLSASVGDRVSITCKASQDVSIAVAWYQQKPGKAPKLLIYSASYRYTGVPDRFSGSGSGTDFTLTISSLQPEDFAVYYCQQHYITPLTFGAGTKVEIKR
notes: prepared on the basis of sacituzumab govitecan (ChemPartner, #T07-001); naked antibody
Regarding B1, in assay [1], the binding result is “no binding (tested: 33.33 nM (starting concentration))”. In addition, the half-maximal effective concentration (EC50) in assay [2] was determined as 1.3 nM.

B2: PR001165 (antibody, human IgG1, kappa, V domains shown)
VH: QVQLVESGGGVVQPGRSLRLSCEASGFTFSHYGMHWVRQAPGKGLEWVAVIWYDGIKTYYVESVKGRFTISRDNSKNTLNLQMNRLRAEDTAVYYCARDGGFGESNYYGLDVWGQGTTVTVSS
VL: DIQLTQSPSFLSASVGDRVTITCRASQGISSYLGWYQQKPGKAPKLLIYIASTLQSGVPSRFSGSGSGTEFTLTISSLQPEDFATYYCQQLNSYPYTFGQGTKLEIKR
notes: fully human IgG1/kappa; also called antibody No. (26)
Turning to B2, the EC50 in assay [2] came to 1.8 nM.

Broadly, the EC50 is the midpoint of the concentration-response curve.
